Molecular target: T1, fluorogenic peptide (MCA)Lys-Lys-Pro-Ala-Glu-Phe-Phe-Ala-Leu-Lys(DNP)
T1 chain: KKPAEFFALK

B1: proCardosinB lacking the PSI region (pCBΔPSI) (protein)
chain: MVSNGGLLRVGLKKRKVDRLDQLRAHGVHMLGNARKDFGFRRTLRDSGSGIVALTNDRDTAYYGEIGIGTPPQNFAVIFDTGSSDLWVPSTKCDTSLACVIHPRYDSGDSSTYKGNGTTASIQYGTGAIVGFYSQDSVEVGDLVVEHQDFIETTEEDDTVFLKSEFDGILGLGFQEISAGKAVPVWYNMVNQGLVEEAVFSFWLNRNVDEEEGGELVFGGVDPNHFRGNHTYVPVTRKGYWQFEMGDVLIGDKSSGFCAGGCAAIADSGTSFFAGPTAIITQINQAIGAKGGGGSAESIVDCNGISSMPNIAFTIGSKLFEVTPEQYIYKVGEGEAATCISGFTALDIMSPQGPIWILGDMFMGPYHTVFDYGKLRVGFAEAV
B1 showed a Km of 8.7 µM, a VMax of 2.15e-05 µmol/s and a kcat of 36.5 s⁻¹. The kcat/Km was 4.2e+06 M⁻¹ s⁻¹.
